Molecular target: T1, human CD98hc (SLC3A2), heavy subunit of the Asc1/CD98hc heterodimer (human, UniProt P08195-2 1-529, N-glycosylation at residues 264, 280, 323 and 405; disulfide bridge from Cys 109 to Cys 154 of Asc1)
T1 construct: CD98hc (SLC3A2), human; residues 61-529 were modelled and the disulfide cysteine is numbered C109, which fits the 529-residue isoform (isoform f is named only for the HeLa construct); also called heavy chain; ancillary subunit; source: HEK293-6E, co-transfected with Asc1, purified as heterodimer in digitonin (Ni-NTA, size exclusion chromatography)
T1 sequence: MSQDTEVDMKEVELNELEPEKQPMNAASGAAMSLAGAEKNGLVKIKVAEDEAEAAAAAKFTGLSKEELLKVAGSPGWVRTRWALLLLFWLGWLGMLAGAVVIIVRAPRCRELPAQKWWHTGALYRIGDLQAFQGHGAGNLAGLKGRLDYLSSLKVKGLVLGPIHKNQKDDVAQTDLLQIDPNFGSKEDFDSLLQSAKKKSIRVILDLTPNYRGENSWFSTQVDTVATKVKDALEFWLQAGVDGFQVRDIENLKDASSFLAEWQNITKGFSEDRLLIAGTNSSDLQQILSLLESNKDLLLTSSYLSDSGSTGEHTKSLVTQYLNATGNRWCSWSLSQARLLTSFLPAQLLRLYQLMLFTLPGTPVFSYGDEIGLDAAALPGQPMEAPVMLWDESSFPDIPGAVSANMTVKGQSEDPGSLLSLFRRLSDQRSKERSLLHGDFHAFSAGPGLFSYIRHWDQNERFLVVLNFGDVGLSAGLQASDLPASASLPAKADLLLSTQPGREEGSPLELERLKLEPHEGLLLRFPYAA
Assay: cryo-EM structure; heterodimer co-expressed in HEK293-6E, solubilised in 1% digitonin, purified by Ni-NTA and Superdex200 in 20 mM Tris-HCl pH 8.0, 150 mM NaCl, 0.1% digitonin; 1.2-1.5 mg/ml, 10 mM D-Ser added before vitrification (no ligand density found)
Conditions: both partners purified

- binding result: binds
B1: human Asc1 (SLC7A10), light subunit of the Asc1/CD98hc heterodimer (natural protein)
chain: MAGHTQQPSGRGNPRPAPSPSPVPGTVPGASERVALKKEIGLLSACTIIIGNIIGSGIFISPKGVLEHSGSVGLALFVWVLGGGVTALGSLCYAELGVAIPKSGGDYAYVTEIFGGLAGFLLLWSAVLIMYPTSLAVISMTFSNYVLQPVFPNCIPPTTASRVLSMACLMLLTWVNSSSVRWATRIQDMFTGGKLLALSLIIGVGLLQIFQGHFEELRPSNAFAFWMTPSVGHLALAFLQGSFAFSGWNFLNYVTEEMVDARKNLPRAIFISIPLVTFVYTFTNIAYFTAMSPQELLSSNAVAVTFGEKLLGYFSWVMPVSVALSTFGGINGYLFTYSRLCFSGAREGHLPSLLAMIHVRHCTPIPALLVCCGATAVIMLVGDTYTLINYVSFINYLCYGVTILGLLLLRWRRPALHRPIKVNLLIPVAYLVFWAFLLVFSFISEPMVCGVGVIIILTGVPIFFLGVFWRSKPKCVHRLTESMTHWGQELCFVVYPQDAPEEEENGPCPPSLLPATDKPSKPQ
modifications: disulfide bridge from Cys 154 to Cys 109 of CD98hc
notes: Asc1 (SLC7A10), human; residues 41-489 were modelled in the cryoEM map; The final construct has no GFP; a version with C-terminal eGFP was used only in preliminary trials; also called hAsc1; light chain; source: HEK293-6E, co-transfected with CD98hc, purified as heterodimer in digitonin (Ni-NTA, size exclusion chromatography); not shown: 6xHis, C-terminal, kept

Reference: paper PMC10998858, “Structure and mechanisms of transport of human Asc1/CD98hc amino acid transporter” (Nature Communications, 2024)
